How the values were obtained:
[1] = target: T1, TBK1 (Homo sapiens, UniProt Q9UHD2); assay type: binding
T1 sequence (Q9UHD2 1-729): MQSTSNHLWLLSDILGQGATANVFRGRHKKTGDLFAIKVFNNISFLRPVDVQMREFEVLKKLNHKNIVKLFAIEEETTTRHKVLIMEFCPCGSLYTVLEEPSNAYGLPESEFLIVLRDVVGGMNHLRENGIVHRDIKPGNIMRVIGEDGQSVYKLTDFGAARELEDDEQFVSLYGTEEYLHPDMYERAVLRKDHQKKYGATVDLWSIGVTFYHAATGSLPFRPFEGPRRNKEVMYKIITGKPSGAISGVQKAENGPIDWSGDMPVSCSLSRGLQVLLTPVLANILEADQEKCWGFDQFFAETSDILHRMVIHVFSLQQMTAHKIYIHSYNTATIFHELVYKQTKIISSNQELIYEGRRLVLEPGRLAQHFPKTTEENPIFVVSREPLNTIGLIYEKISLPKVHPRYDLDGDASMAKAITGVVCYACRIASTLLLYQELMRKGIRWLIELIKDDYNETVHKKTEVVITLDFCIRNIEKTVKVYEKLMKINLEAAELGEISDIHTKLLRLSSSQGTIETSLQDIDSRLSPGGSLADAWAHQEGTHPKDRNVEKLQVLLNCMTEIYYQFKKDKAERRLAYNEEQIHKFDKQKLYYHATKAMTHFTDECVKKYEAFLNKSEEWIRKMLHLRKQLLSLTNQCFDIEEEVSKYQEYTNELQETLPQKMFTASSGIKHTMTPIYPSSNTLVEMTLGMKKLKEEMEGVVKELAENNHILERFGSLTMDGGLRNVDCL

[2] = tested on: HK2; assay type: binding
[3] = tested on: murine macrophages and patients with TB; details: ref [10],[11]; cited from earlier work
[4] = tested on: apoptosis and inflammation; details: ref [10],[11]; cited from earlier work
[5] = tested on: Caspase 3, FasL, Fas, and Bax in epithelioid cells and multinucleated giant cells; details: ref [45]; cited from earlier work

B1: MPT64: secretory immunodominant antigen of MTB, located in the RD2 region (protein)
chain: APKTYCEELKGTDTGQACQIQMSDPAYNINISLPSYYPDQKSLENYIAQTRDKFLSAATSSTPREAPYELNITSATYQSAIPPRGTQAVVLKVYQNAGGTHPTTTYKAFDWDQAYRKPITYDTLWQADTDPLPVVFPIVQGELSKQTGQQVSIAPNAGLDPVNYQNFAVTNDGVIFFFNPGELLPEAAGPTQVLVPRSAIDSMLA
In the case of B1, the “region of MPT protein binding TBK1” value [1] is reported as “The N-terminal domain of MPT64 interacted with TBK1, and the core peptide sequences for binding were 24–28 and 34–38 peptides”, the “domain of HK2 required for binding” value [2] is reported as “HK2 domain in HK2 were found to be essential for their interaction with MPT64” and the “region of MPT64 binding HK2” value [2] is reported as “The C-terminal of MPT64 was associated with HK2 and its essential peptides were located between 187–193”. The “production of IFN-γ” value [3] was “induced the production of IFN-γ in murine macrophages and patients with TB”, the “apoptosis, TGF-β expression and inflammation” value [4] was “reduced apoptosis by increasing the expression of TGF-β and reducing inflammation” and the “relation to expression of apoptotic factors” value [5] was “related to the expression of apoptotic factors, such as Caspase 3, FasL, Fas, and Bax”.
